Non-standard residues stand in square brackets, D forms with d. No end group written: not given here. pY = N[C@@H](Cc1ccc(OP(=O)(O)O)cc1)C(=O)O
Legend:
[1] = biological target: T1, amino terminal SH2 domain of Ras Gap (Homo sapiens, UniProt P20936); assay: Binding of phosphotyrosine tryptic peptides of Bcr-Abl to GST-Gap SH2; details: phosphotyrosine tryptic peptides of p210 Bcr-Abl; no binding to GST
T1 construct: the amino terminal SH2 domain of Ras Gap was expressed as a fusion protein containing the glutathione S transferase protein (GST); made in house
T1 sequence (P20936 181-272 limits assumed): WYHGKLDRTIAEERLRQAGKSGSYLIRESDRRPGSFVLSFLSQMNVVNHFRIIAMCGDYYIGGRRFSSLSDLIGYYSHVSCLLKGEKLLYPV
Excerpt: The inventors have conducted studies in which the amino terminal SH2 domain of Ras Gap was expressed as a fusion protein containing the glutathione S transferase protein (GST). These studies involve mixing GST-Gap SH2 with phosphotyrosine tryptic peptides of Bcr-Abl.

c-Abl SH2 = biological target: T2, c-Abl SH2 (Mus musculus, UniProt P00520); assay: Binding of phosphotyrosine tryptic peptides of Bcr-Abl to GST-Abl SH2; details: phosphotyrosine tryptic peptides of p210 Bcr-Abl; no binding to GST
T2 construct: The inventors performed similar studies with the SH2 domain of Abl; made in house
T2 sequence (P00520 127-217 limits assumed): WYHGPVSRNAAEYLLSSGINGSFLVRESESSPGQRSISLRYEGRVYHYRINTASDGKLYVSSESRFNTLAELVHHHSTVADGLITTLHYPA
Excerpt: FIG. 10A and FIG. 10B show an absorbed tryptic map of p210. GST-Abl SH2 binds phosphotyrosine tryptic peptide 3, which contains tyrosine 283. p210 Bcr-Abl labeled in the in vitro kinase assay from K562 cells was purified on SDS gels, digested with trypsin and the digest was split in two parts. One was absorbed with GST (FIG. 10A) and the other with GST-Abl SH2 (FIG. 10B). […] The dashed circles identify peptides lacking in the GST-Abl SH2 absorbed fractions.
The inventors performed similar studies with the SH2 domain of Abl. These were performed with a mouse c-Abl SH2 sequence, which differs by only two amino acids from the human sequence within the SH2 domain.

SH2 domain of Grb2 = SH2 domain of Grb2 (Homo sapiens, UniProt P62993); assay: Binding of Bcr peptide to Grb2; details: tyrosine 177 phosphorylated peptide
simian Grb2 protein = assay: Co-immunoprecipitation of Grb2 with p160 BCR from COS1 cells, anti-Grb2 Western blotting; assay type: binding; details: COS1 cells coexpressing p145 c-ABL(1b)
Procedure: Anti-Grb2 Western blotting was performed on anti-BCR (1256-1271) antibody immunoprecipitates of lysates from COS1 cells cotransfected p145 c-ABL with either wild type p160 BCR (lanes 1 and 2) or p160 BCR (F177) (lanes 3 and 4) mutant. Lanes 2 and 4 are immunoprecipitation with pre-blocked anti-BCR (1256-1271) antibody. COS1 cells express an endogenous simian Grb2 protein detected by Western blotting (FIG. 18, lane 1). P160 BCR and p145 c-ABL(1b) were separately or simultaneously expressed in COS1 cells. Two days after transfection, cells were harvested. The cell lysates were clarified by ultracentrifugation and the supernatants were incubated with either anti-BCR c-terminal (1256-1271) antibody (FIG. 18, lanes 2, 4 and 6) or peptide preblocked antibody (FIG. 18, lanes 3, 5 and 7). The immunoprecipitated proteins were then fractionated by a 10% polyacrylamide SDS PAGE and then transferred to a p-immoblin membrane. The membrane was then blotted by an anti-Grb2 antibody (FIG. 18). In this study, p145 c-ABL was coexpressed with either wild type p160 BCR or the mutant p160 BCR(F177) in COS1 cells. Cell lysates were subjected to immunoprecipitation by anti-BCR C-terminal (1256-1271) antibody and the immunoprecipitates were analyzed by Western blotting with an anti-Grb2 antibody.

Chain of SH2 domain of Grb2 (P62993 whole entry, the tested form may be a part): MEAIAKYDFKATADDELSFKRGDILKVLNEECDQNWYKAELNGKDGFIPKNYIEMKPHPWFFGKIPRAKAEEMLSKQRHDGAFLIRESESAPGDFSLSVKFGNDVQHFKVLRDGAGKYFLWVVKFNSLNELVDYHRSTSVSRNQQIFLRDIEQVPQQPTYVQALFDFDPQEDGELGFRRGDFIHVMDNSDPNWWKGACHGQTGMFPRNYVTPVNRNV

Molecule | Binding to GST-Ras Gap SH2 fusion protein [1] | Binding to GST-Abl SH2 (c-Abl SH2) | Co-immunoprecipitation of simian Grb2 protein by anti-BCR C-terminal (1256-1271) antibody (simian Grb2 protein) | also measured
NSLETLLYK (NSLETLL[pY]K) [#8, phosphotyrosine tryptic peptide 8 of p210 Bcr-Abl, outside of the first exon] | specifically bound | bind |  | 
GHGQPGADAEKPFpY^177VNVE (GHGQPGADAEKPF[pY]VNVE) [Bcr Peptide 164-181] |  |  |  | Binding to the SH2 binding site on Grb2 (SH2 domain of Grb2): binds; Binding to the SH2 binding site on Grb2 (SH2 domain of Grb2; listed as SEQ ID NO:8): strongly binds
FLKDNLIDANGGSRPPWPPLEYQPYQSIYVGGMMEGEGK (also: phosphotyrosine, position not given here) [#3, phosphotyrosine tryptic peptide 3 of p210 Bcr-Abl] | specifically bound | bind |  | 
wild type p160 PCR: wild type full length human p160 BCR tyrosine phosphorylated by p145 c-ABL(1b) (protein) MVDPVGFAEAWKAQFPDSEPPRMELRSVGDIEQELERCKASIRRLEQEVNQERFRMIYLQTLLAKEKKSYDRQRWGFRRAAQAPDGASEPRASASRPQPAPADGADPPPAEEPEARPDGEGSPGKARPGTARRPGAAASGERDDRGPPASVAALRSNFERIRKGHGQPGADAEKPFYVNVEFHHERGLVKVNDKEVSDRISSLGSQAMQMERKKSQHGAGSSVGDASRPPYRGRSSESSCGVDGDYEDAELNPRFLKDNLIDANGGSRPPWPPLEYQPYQSIYVGGMMEGEGKGPLLRSQSTSEQEKRLTWPRRSYSPRSFEDCGGGYTPDCSSNENLTSSEEDFSSGQSSRVSPSPTTYRMFRDKSRSPSQNSQQSFDSSSPPTPQCHKRHRHCPVVVSEATIVGVRKTGQIWPNDGEGAFHGDADGSFGTPPGYGCAADRAEEQRRHQDGLPYIDDSPSSSPHLSSKGRGSRDALVSGALESTKASELDLEKGLEMRKWVLSGILASEETYLSHLEALLLPMKPLKAAATTSQPVLTSQQIETIFFKVPELYEIHKEFYDGLFPRVQQWSHQQRVGDLFQKLASQLGVYRAFVDNYGVAMEMAEKCCQANAQFAEISENLRARSNKDAKDPTTKNSLETLLYKPVDRVTRSTLVLHDLLKHTPASHPDHPLLQDALRISQNFLSSINEEITPRRQSMTVKKGEHRQLLKDSFMVELVEGARKLRHVFLFTDLLLCTKLKKQSGGKTQQYDCKWYIPLTDLSFQMVDELEAVPNIPLVPDEELDALKIKISQIKNDIQREKRANKGSKATERLKKKLSEQESLLLLMSPSMAFRVHSRNGKSYTFLISSDYERAEWRENIREQQKKCFRSFSLTSVELQMLTNSCVKLQTVHSIPLTINKEDDESPGLYGFLNVIVHSATGFKQSSNLYCTLEVDSFGYFVNKAKTRVYRDTAEPNWNEEFEIELEGSQTLRILCYEKCYNKTKIPKEDGESTDRLMGKGQVQLDPQALQDRDWQRTVIAMNGIEVKLSVKFNSREFSLKRMPSRKQTGVFGVKIAVVTKRERSKVPYIVRQCVEEIERRGMEEVGIYRVSGVATDIQALKAAFDVNNKDVSVMMSEMDVNAIAGTLKLYFRELPEPLFTDEFYPNFAEGIALSDPVAKESCMLNLLLSLPEANLLTFLFLLDHLKRVAEKEAVNKMSLHNLATVFGPTLLRPSEKESKLPANPSQPITMTDSWSLEVMSQVQVLLYFLQLEAIPAPDSKRQSILFSTEV |  |  | bind specifically | 
p160 BCR lacking tyrosine 177: tyrosine 177 to phenylalanine mutant of p160 BCR (protein) MVDPVGFAEAWKAQFPDSEPPRMELRSVGDIEQELERCKASIRRLEQEVNQERFRMIYLQTLLAKEKKSYDRQRWGFRRAAQAPDGASEPRASASRPQPAPADGADPPPAEEPEARPDGEGSPGKARPGTARRPGAAASGERDDRGPPASVAALRSNFERIRKGHGQPGADAEKPFFVNVEFHHERGLVKVNDKEVSDRISSLGSQAMQMERKKSQHGAGSSVGDASRPPYRGRSSESSCGVDGDYEDAELNPRFLKDNLIDANGGSRPPWPPLEYQPYQSIYVGGMMEGEGKGPLLRSQSTSEQEKRLTWPRRSYSPRSFEDCGGGYTPDCSSNENLTSSEEDFSSGQSSRVSPSPTTYRMFRDKSRSPSQNSQQSFDSSSPPTPQCHKRHRHCPVVVSEATIVGVRKTGQIWPNDGEGAFHGDADGSFGTPPGYGCAADRAEEQRRHQDGLPYIDDSPSSSPHLSSKGRGSRDALVSGALESTKASELDLEKGLEMRKWVLSGILASEETYLSHLEALLLPMKPLKAAATTSQPVLTSQQIETIFFKVPELYEIHKEFYDGLFPRVQQWSHQQRVGDLFQKLASQLGVYRAFVDNYGVAMEMAEKCCQANAQFAEISENLRARSNKDAKDPTTKNSLETLLYKPVDRVTRSTLVLHDLLKHTPASHPDHPLLQDALRISQNFLSSINEEITPRRQSMTVKKGEHRQLLKDSFMVELVEGARKLRHVFLFTDLLLCTKLKKQSGGKTQQYDCKWYIPLTDLSFQMVDELEAVPNIPLVPDEELDALKIKISQIKNDIQREKRANKGSKATERLKKKLSEQESLLLLMSPSMAFRVHSRNGKSYTFLISSDYERAEWRENIREQQKKCFRSFSLTSVELQMLTNSCVKLQTVHSIPLTINKEDDESPGLYGFLNVIVHSATGFKQSSNLYCTLEVDSFGYFVNKAKTRVYRDTAEPNWNEEFEIELEGSQTLRILCYEKCYNKTKIPKEDGESTDRLMGKGQVQLDPQALQDRDWQRTVIAMNGIEVKLSVKFNSREFSLKRMPSRKQTGVFGVKIAVVTKRERSKVPYIVRQCVEEIERRGMEEVGIYRVSGVATDIQALKAAFDVNNKDVSVMMSEMDVNAIAGTLKLYFRELPEPLFTDEFYPNFAEGIALSDPVAKESCMLNLLLSLPEANLLTFLFLLDHLKRVAEKEAVNKMSLHNLATVFGPTLLRPSEKESKLPANPSQPITMTDSWSLEVMSQVQVLLYFLQLEAIPAPDSKRQSILFSTEV |  |  | much reduced level | 
